Source: the nanobody polyreactivity screen of Harvey et al. (2022)

Assay: yeast display, Sf9 membrane polyspecificity reagent, FACS + sequencing; frameworks hold sequencing errors
In short: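 Galactose induction of a Saccharomyces cerevisiae BJ5465 synthetic nanobody display library ran 36–48 hours. The cells were then stained for 1 hour at 4 °C with 10% biotinylated, detergent-solubilized Sf9 membrane reagent, pulled down on streptavidin microbeads and FACS-sorted into low and high (top ~1%) gates on expression and reagent-binding fluorescence. Labels for polyreactivity follow the gate of origin.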

| Sequence | polyreactivity (PSR sort gate) |
| --- | --- |
| QVQLVESGGGLVQAGGSLRLICAASGSIFRYAMGWYRQAPGKERELVAAINRSGGSTYYADSVKGRFTISRDNAKNTVYLQMNSLKTEDTEVYYCAKDLRYGVNYRLVNRYGYWGQGTQVTVSS | high polyreactivity |
| QVQLVESGGGLFQAGGTLRLSCAASGRIFVYYAMGWYRQAPGKERELVASITTGGRTYYADSVKGRFTISRDNAKNTVYLQMNSLKPEDTAVYYCAARKYSYTWYDYWGQGTQVTVSS | high polyreactivity |
| QVQLVESGGGLVQAGGSLRLSCAASGSIFQYNAMGWSRQAPGKERELVAAIRTNYADSVKGRFTISRDNAKNTVYLQMNSLKPEDTAVYYCAAESSQTPTSAFDYWGQGTQVTVSS | low polyreactivity |
| QVQLVESGGGLVQAGGSLRLSCAASGRIFGPYTKGWYRQAPGKERELVATISYSGSTTYYADSVKGRFTISRDNAKNTVYLQMNSLKPEDTAVYYCAAYYWARRDWGQGTQVTVSS | high polyreactivity |
| QVQLVESGGGLVQAGGSLRLSCACSGSTFRWYTMGWYRQAPGKECELVAAISISGTSTYYADSVNGRFTISRDNAKNTVYLQMNSLTPEDTAVYYCAADPPSRWGDYWGQGTQVTVSS | high polyreactivity |
| QVQLVESGGGLVQAGGSLSLSCAASGSIFGGYTMGRKRQAPGKERELVAAISSVGSTYYADSVKGRFTISRDNAKNTVYLQMNSLKTEDTAVYYCATSTYAYRRNSNYYSLPRFGYWGQGTQVSVSS | high polyreactivity |
| QVQLVESGGGLVQAGGSLRLSCAASGSIFNQYPMGWYRQAPGKERELVAAISSGSTYYADSVKGRFIISRDNAKITVYLQMNSMKAEDTAVNNCAKDRHSPYWAMDYWGQGTQVTVSS | high polyreactivity |
| QVQLVESGGGLVQAGGSLRLSCAASGRIFYANAMGWYRQAPGKEWEFVASITYGGGSTYYADSVKGRFTISRDNAKNTVYLQMNSLKPEDTAVYYCAAGYYAQYEDYIRYDYWGQGTQVTVSS | low polyreactivity |
| QVQLVESGGGLVQAGGSLRLSCAASGSIFSENAMGWYRQAPGKERELVAAITGGASTNYADSVKGRFTISRDNAKNTVYLQMNSLKPEDNAVYYCNTGGPRGTTYDYWGQGTQVTVSS | low polyreactivity |
| QVQLVESGGGLVQAGGSVRLSCAASGNIFLRNAMGWYRQSPGKERELVAAIRRTGGSTYYADSVKGRFTISRDNAKTTVYLQMNSLKPEDTAVYYCAKRSYTGYEYWGQGTQVTVSS | low polyreactivity |
| QVQLVESGGGLVQAGGSLRLSCAASGLTFVEYAMGWYRQAPGKEREFVAAIRSRGGSTYYADSVKGRFTISRDNAKNTVYLQMNSLKPEDTAVYYCTADGYFWGQGTQVTVSS | low polyreactivity |
| QVQLVESGGGLVQAGGSLRLSCAASGITFYFYAMGWYRQAPGKERELVASITSSGSTDYADSVKGRFTISRDNAKNTVYLQMNSLKPEDTAVSYCAADVQKHFYSFGDERGFPFDYWGQGTQVTVSS | low polyreactivity |
| QVQLVESRGGLVQAGGSLRLSCAASGSTFYLNVMGWYIQAPGKERELVAAITYRGGRTSYADSVKGRFTISRDNAKNTVYLQMISLKPEDTAVYYCATPKYYGYYYWGHGTQVTVSS | high polyreactivity |
| QVQLVESGGGLVQAGGSLRLSCAASGRTFVRNAMGWYRQAPGKERELVAAISSSGGSTYYADSVKGRFTISRDNAKNTVYLQMNSLKPEDTAVYYCAAFRIGREYWGQGTQVTVSS | high polyreactivity |
| QVQLVESGGGLVQAGGSLLLSCAASGGTFYYYTMGWYRQAPGKERELVAAISWSGGSTYYADSVKGRFTISRDNAKNTVYLQMNSLKPEDTAVYYCAALAYVSDYDYWGQGTQVTVSS | high polyreactivity |
| QVQLVESGGGLVQAGGSLRLSCAASGLIFFYLNDMGWYRQAPGKERELVATITSGTSTTYADSVKGRFTISRDNAKNTVYLQMNSLKPEDTAVYYCNATDVGIITVGYGHGGYYWGQGTQVTVSS | low polyreactivity |

| Sequence | polyreactivity (PSR sort gate) |
| --- | --- |
| QVQLVESGGGLVQAGGSLRLSCAASGSIFGINAMGWYRQAPWKERELVAAITSDGSTYYADSVKGRFTISRDNAKNTVYLQMNSLNPEDTAVYYCAAYSWYYTSRYDYWGQGTQVTVSS | low polyreactivity |
| QVQLVESGGGLVQAGGSLRLSSAASGRIFAVYAMGLYRQAPGKERELVAAINWNDGSTYYADSVKGRFTISRDNAKNTVYLQMNSLKPEDTAVYYCAARALSRSVYGKSGYKYGYWGQGTQVTVSS | high polyreactivity |
| QVQLVESGGGLVQAGGSLRLSCAASGSIFWSYAMGWYRQAPGKEREFVAAITVSGGSTYYADSVKGRFTISRDNAKNTVYLQMNSLKPEDTAVFYCAARQLTAGGTDLDYWGQGTKVTVSS | low polyreactivity |
| QFQLVESGVGLVQAGGSLRLSCAASGRTSGSYAMGWYRQAPGKERELVAVITTSDGSTYYADSVKGRFTISRDNAKNTVYLQMNSLKPEDTEVYYCNVDYPNLWYDSYYYWGQGTEVTVSS | low polyreactivity |
| QVQLVESGGGLVQAGGSLRLSCAASGLIFGNYAMGWYRQAPGKERELVAAITSTGITYYADSVKGRFTISRDNAKNTVYLQMNSLKPEDTAVYYCNADYYRHSLDYDYVGYDYWGQGTQVTVSS | low polyreactivity |
| QVQLVESGGGLVHAGGSLRLSCAASGRICGPYVMGWYRQAPGKERELVASITSSGGSPYYADSVKGRFTISRDNAKNTVYLQMNSLKPEDTAVYYWGQGTQVSVSS | low polyreactivity |
| QVQLVESGGGLYQAGGSLRLSCAASGFIFDPYARGWYRQAPGKEMELVASITWYGGRTYYADSVKGRFTISRDNAKNTVYLQMNSLKPEDPAVYYCAARGYTVWDDYWGQGTQVTVSS | high polyreactivity |
| QVQLVESGGGLVQAGGSLRLSCAASGSIFGVYDMGWYRQAPGKERELVAVINSNGGSTYYADSVKGRFTISRDNAKNTVYLQMNSLNPEDTAVYYCAADYQSYVYIGYGYWGQGTQVTVSS | low polyreactivity |
| QVQLVESGGGLVQAGGSLRLSCAASGLTFSYYAMGWYRPAPGKERELVAAITSSGGNTYYADSVKGRFTISRDYAKNTVYLQMNSLKPEDTAGDSCTARRYLRGYGYGYWGQGTQVTVSS | high polyreactivity |
| QVQLVESGGGLVQAGGSLRLSCAASGNIFYLYAMGWYRQAPGKERELVARITIGGSTYYADSVKGRFTISRDNAKNTVYLQMNSLKPEDTAVYYCAARGPYYRYYYWGQGTQVTVSS | high polyreactivity |
| QVQLVESGGGLVQAGGSLSLSCAASGRTFRYYAMGWYRQAPGKERELVAAMRTRGASTYYADSVKGRFTISRDNAKNSVYLQMNSLKPEVSAVYYCAASRSGHGIIDYDSWGK | low polyreactivity |
| QVQLVESGGALDQAGGSLRLTCAASGFIFYFYAKGWYRQAPGKERELVAAIDSAGSTNYADSVKGRFTISRDNAKNTVYLQMNSLKPEDTAVYYCAREPDSYVSWRSRYNYWGQGTQVTVSS | low polyreactivity |
| QVQLVESGGGLFQAGGSLRLSCAASGRIFYSNAMGWYRQAPGKERELVASISPNSGPTYYADSVKGRFTISRDNAKNTVYLQMNSLKPEVTAVYYCAARGGYYQDGLVTGVAEYGYCGQGTQVTVSS | low polyreactivity |
| QVQLVESGGGLVQAGGSLRLSCAASGRIFRYNAMGWYRQAPGKERELVAAISTRGGNTYYADSVKGRFTISRDNAKNTVYLQMNSLKPEDTAVYYCNARSSLPYNYWGQGTQVTVSS | high polyreactivity |
| QVQLVESGGGLVQAGGSLRLSCAASGFTFYSYAMGWYRQAPGTERELVAAISGGGGSTYYADSVKGRFTISRDNAKNTVYLQMNSLKPEDTAVYYCAKRPAYRGYGLGYYWGQGTQVTVSS | high polyreactivity |
| QVQLVESGGGLVQAGGSLRLSCAASGFTFAGNTMGWYRQAPGKERELVAAINSGGSTHYADSVKGRFTISRDNAKNTVYLQMNSLKPEDTAVYYCADYLTRYGAYYWGQGTQVTVSS | high polyreactivity |
